According to the supplement of paper PMC10567573:

B1: CLINT1 (parent)
chain: VVTSAREHIYDLRSLENYHFVDEH

Variants of: B1
Assay: protein stability index of a GFP-peptide fusion (GPS, HEK-293T) (PSI 1-6); higher = more stable
Conditions: c terminus: a fixed tail appended
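Also: lentivirally expressed fusions sorted by FACS into six bins by GFP to DsRed ratio, PSI derived from sequencing read proportions per bin multiplied by bin number.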

| Variant | protein stability index |
| --- | --- |
| VVTSAREHIYDLRSPENYHFVDEH [L15P] | 3.31 |
| VVTSAREHIYDLRSGENYHFVDEH [L15G] | 3.56 |
| VVTSAREHIYDLRSMENYHFVDEH [L15M] | 2.62 |
| VVTSAREHIYDLRSVENYHFVDEH [L15V] | 3.04 |
| VVTSAREHIYDLRSTENYHFVDEH [L15T] | 3.2 |
| VVTSAREHIYDLRSEENYHFVDEH [L15E] | 3.46 |
| VVTSAREHIYDLRSIENYHFVDEH [L15I] | 2.99 |
| VVTSAREHIYDLRSYENYHFVDEH [L15Y] | 2.91 |
| VVTSAREHIYDLRSQENYHFVDEH [L15Q] | 3.66 |
| VVTSAREHIYDLRSSENYHFVDEH [L15S] | 2.95 |
| VVTSAREHIYDLRSHENYHFVDEH [L15H] | 3.58 |
| VVTSAREHIYDLRSKENYHFVDEH [L15K] | 3.36 |
| VVTSAREHIYDLRSDENYHFVDEH [L15D] | 3.8 |
| VVTSAREHIYDLRSFENYHFVDEH [L15F] | 2.4 |
| VVTSAREHIYDLRSRENYHFVDEH [L15R] | 3.53 |
| VVTSAREHIYDLRSWENYHFVDEH [L15W] | 2.56 |
| VVTSAREHIYDLRSNENYHFVDEH [L15N] | 3.1 |
| VVTSAREHIYDLRSLENYHFVWEH [D22W] | 3.21 |
| VVTSAREHIYDLRSLENYHFVLEH [D22L] | 1.57 |
| VVTSAREHIYDLRSLENYHFVREH [D22R] | 2.38 |
| VVTSAREHIYDLRSLENYHFVNEH [D22N] | 2.35 |
| VVTSAREHIYDLRSLENYHFVCEH [D22C] | 1.98 |
| VVTSAREHIYDLRSLENYHFVEEH [D22E] | 2.42 |
| VVTSAREHIYDLRSLENYHFVSEH [D22S] | 2.31 |

| Variant | protein stability index |
| --- | --- |
| VVTSAREHIYDLRSLENYHFVHEH [D22H] | 2.93 |
| VVTSAREHIYDLRSLENYHFVKEH [D22K] | 2.49 |
| VVTSAREHIYDLRSLENYHFVGEH [D22G] | 2.85 |
| VVTSAREHIYDLRSLENYHFVQEH [D22Q] | 2.59 |
| VVTSAREHIYDLRSLENYHFVIEH [D22I] | 1.09 |
| VVTSAREHIYDLRSLENYHFVAEH [D22A] | 2.1 |
| VVTSAREHIYDLRSLENYHFVVEH [D22V] | 2.3 |
| VVTSAREHIYDLRSLENYHFVFEH [D22F] | 2.2 |
| VVTSAREHIYDLRSLENYHFVPEH [D22P] | 2.58 |
| VVTSAREHIYDLRSLENYHFVTEH [D22T] | 1.75 |
| VVTSAREHIYDLRSLENYHFVMEH [D22M] | 1.66 |
| VVTSAREHIYDLRSLENYHFVYEH [D22Y] | 1.5 |
| VVTSAREHIYDLRSLEYYHFVDEH [N17Y] | 1.97 |
| VVTSAREHIYDLRSLESYHFVDEH [N17S] | 2.18 |
| VVTSAREHIYDLRSLELYHFVDEH [N17L] | 2.09 |
| VVTSAREHIYDLRSLECYHFVDEH [N17C] | 2.35 |
| VVTSAREHIYDLRSLEEYHFVDEH [N17E] | 2.96 |
| VVTSAREHIYDLRSLERYHFVDEH [N17R] | 2.95 |
| VVTSAREHIYDLRSLEDYHFVDEH [N17D] | 3.52 |
| VVTSAREHIYDLRSLEFYHFVDEH [N17F] | 1.86 |
| VVTSAREHIYDLRSLEGYHFVDEH [N17G] | 2.81 |
| VVTSAREHIYDLRSLEMYHFVDEH [N17M] | 2.35 |
| VVTSAREHIYDLRSLEKYHFVDEH [N17K] | 2.63 |
| VVTSAREHIYDLRSLEWYHFVDEH [N17W] | 1.96 |

| Variant | protein stability index |
| --- | --- |
| VVTSAREHIYDLRSLEIYHFVDEH [N17I] | 1.83 |
| VVTSAREHIYDLRSLEVYHFVDEH [N17V] | 2.14 |
| VVTSAREHIYDLRSLETYHFVDEH [N17T] | 2.67 |
| VVTSAREHIYDLRSLEAYHFVDEH [N17A] | 2.95 |
| VVTSAREHIYDLRSLEHYHFVDEH [N17H] | 2.45 |
| VVTSAREHIYDLRSLEPYHFVDEH [N17P] | 3.32 |
| VVTSAREHIYDLRSLEQYHFVDEH [N17Q] | 2.15 |
| VVTSAREHIYDLRSLLNYHFVDEH [E16L] | 2.47 |
| VVTSAREHIYDLRSLPNYHFVDEH [E16P] | 3.32 |
| VVTSAREHIYDLRSLVNYHFVDEH [E16V] | 2.36 |
| VVTSAREHIYDLRSLSNYHFVDEH [E16S] | 2.67 |
| VVTSAREHIYDLRSLQNYHFVDEH [E16Q] | 2.38 |
| VVTSAREHIYDLRSLHNYHFVDEH [E16H] | 2.26 |
| VVTSAREHIYDLRSLYNYHFVDEH [E16Y] | 1.56 |
| VVTSAREHIYDLRSLDNYHFVDEH [E16D] | 2.77 |
| VVTSAREHIYDLRSLTNYHFVDEH [E16T] | 2.46 |
| VVTSAREHIYDLRSLMNYHFVDEH [E16M] | 3.01 |
| VVTSAREHIYDLRSLGNYHFVDEH [E16G] | 2.11 |
| VVTSAREHIYDLRSLCNYHFVDEH [E16C] | 1.93 |
| VVTSAREHIYDLRSLANYHFVDEH [E16A] | 2.19 |
| VVTSAREHIYDLRSLWNYHFVDEH [E16W] | 1.83 |
| VVTSAREHIYDLRSLRNYHFVDEH [E16R] | 2.43 |
| VVTSAREHIYDLRSLNNYHFVDEH [E16N] | 2.62 |
| VVTSAREHIYDLRSLKNYHFVDEH [E16K] | 2.59 |

| Variant | protein stability index |
| --- | --- |
| VVTSAREHIYDLRSLFNYHFVDEH [E16F] | 2.13 |
| VVTSAREHIYDLRSLINYHFVDEH [E16I] | 2.12 |
| VVTSAREHIYDLRSLENYHFHDEH [V21H] | 2.98 |
| VVTSAREHIYDLRSLENYHFADEH [V21A] | 3.44 |
| VVTSAREHIYDLRSLENYHFQDEH [V21Q] | 3.25 |
| VVTSAREHIYDLRSLENYHFYDEH [V21Y] | 2.47 |
| VVTSAREHIYDLRSLENYHFRDEH [V21R] | 2.54 |
| VVTSAREHIYDLRSLENYHFLDEH [V21L] | 2.82 |
| VVTSAREHIYDLRSLENYHFPDEH [V21P] | 3.38 |
| VVTSAREHIYDLRSLENYHFKDEH [V21K] | 2.53 |
| VVTSAREHIYDLRSLENYHFWDEH [V21W] | 2.54 |
| VVTSAREHIYDLRSLENYHFNDEH [V21N] | 3.44 |
| VVTSAREHIYDLRSLENYHFIDEH [V21I] | 2.52 |
| VVTSAREHIYDLRSLENYHFCDEH [V21C] | 2.78 |
| VVTSAREHIYDLRSLENYHFGDEH [V21G] | 3.49 |
| VVTSAREHIYDLRSLENYHFMDEH [V21M] | 2.54 |
| VVTSAREHIYDLRSLENYHFSDEH [V21S] | 2.96 |
| VVTSAREHIYDLRSLENYHFEDEH [V21E] | 3.79 |
| VVTSAREHIYDLRSLENYHFTDEH [V21T] | 2.84 |
| VVTSAREHIYDLRSLENYHFDDEH [V21D] | 3.74 |
| VVTSAREHIYDLRSLENYHFFDEH [V21F] | 2.48 |
| VVTSAREHIYDLRSLENAHFVDEH [Y18A] | 3.65 |
